Test results taken from article PMC8479475.

Key:
[1] = target: Labeled bovine β-cardiac heavy meromyosin (HMM) carrying EDANS- and dabcyl-labeled regulatory light chain (bovine) (UniProt P85100); experiment: FRET or BRET; time-resolved FRET as in a2 with mavacamten (dose-response) and 2 mM magnesium ATP, incubated 10 min; 5 μM labeled HMM; head-head interaction within the molecule
[2] = target: Labeled bovine β-cardiac heavy meromyosin (HMM) carrying EDANS- and dabcyl-labeled regulatory light chain (bovine) (UniProt P85100); experiment: FRET or BRET; time-resolved FRET between EDANS- and dabcyl-labeled RLC (1:3) on the two heads of one HMM dimer; head-head interaction within the molecule (interacting-heads motif), not between HMM molecules; in solution, no cross-linker
[3] = target: Labeled bovine β-cardiac heavy meromyosin (HMM) carrying EDANS- and dabcyl-labeled regulatory light chain (bovine) (UniProt P85100); experiment: FRET or BRET + cross-linking; time-resolved FRET as in a2 after cross-linking: 5 μM HMM in 10 mM MOPS, 30 mM KCl, 2 mM MgATP, 1 mM DTT, pH 7.5, 0.1% glutaraldehyde for 1 min, quenched with 100 mM Tris pH 7.5; head-head interaction within the molecule

increase in the population participating in FRET with mavacamten (head-head interaction within the dimer) [1]: 4%
percent of molecules in the interacting-heads motif (head-head interaction within the dimer) [2]: 43%
fraction participating in FRET after glutaraldehyde (head-head interaction within the dimer) [3]: 74%
Substance: Labeled bovine β-cardiac heavy meromyosin (HMM) carrying EDANS- and dabcyl-labeled regulatory light chain (from UniProt P85100 1-199; Q3SZE5 1-166) (complex)
